Data as given in US11491212.
Values joined by “and” are separate entries in the source; they are usually repeats but may differ in a detail not shown here. Equal entries are not always repeated.

B1: FIXa-D203N/F205T/R318Y/E410N (protein)
chain 1: not shown
chain 2: not shown
B2: FIXa-R318Y/R338E/Y345A/N346D/R403E/E410N (protein)
chain 1: not shown
chain 2: not shown
B3: FIXa-Y155F/K247N/N249S/R318Y/R338E/R403E (protein)
chain 1: not shown
chain 2: not shown
B4: FIXa-K247N/N249S/R318Y/R338E/R403E (protein)
chain 1: not shown
chain 2: not shown
B5: FIXa-D104N/K106S/N260S/R318Y/R338E/R403E/E410N (protein)
chain 1: not shown
chain 2: not shown
B6: FIXa-Y155F/N260S/R318Y/R338E/R403E/E410N (protein)
chain 1: not shown
chain 2: not shown
B7: FIXa-Y155F/R318Y/R338E/N346D/R403E/E410N (protein)
chain 1: not shown
chain 2: not shown
B8: FIXa-Y155F/K247N/N249S/N260S (protein)
chain 1: not shown
chain 2: not shown
B9: FIXa-D104N/K106S/K247N/N249S/N260S (protein)
chain 1: not shown
chain 2: not shown
B10: FIXa-D104N/K106S/Y155F/K247N/N249S/N260S (protein)
chain 1: not shown
chain 2: not shown
B11: FIXa-Y155F/R338E/R403E/E410N (protein)
chain 1: not shown
chain 2: not shown
B12: FIXa-A103N/N105S/K247N/N249S/R318Y/R338E/R403E/E410N (protein)
chain 1: not shown
chain 2: not shown

Molecular target: Factor X (FX), P00742
Sequence (P00742 whole entry, looked up): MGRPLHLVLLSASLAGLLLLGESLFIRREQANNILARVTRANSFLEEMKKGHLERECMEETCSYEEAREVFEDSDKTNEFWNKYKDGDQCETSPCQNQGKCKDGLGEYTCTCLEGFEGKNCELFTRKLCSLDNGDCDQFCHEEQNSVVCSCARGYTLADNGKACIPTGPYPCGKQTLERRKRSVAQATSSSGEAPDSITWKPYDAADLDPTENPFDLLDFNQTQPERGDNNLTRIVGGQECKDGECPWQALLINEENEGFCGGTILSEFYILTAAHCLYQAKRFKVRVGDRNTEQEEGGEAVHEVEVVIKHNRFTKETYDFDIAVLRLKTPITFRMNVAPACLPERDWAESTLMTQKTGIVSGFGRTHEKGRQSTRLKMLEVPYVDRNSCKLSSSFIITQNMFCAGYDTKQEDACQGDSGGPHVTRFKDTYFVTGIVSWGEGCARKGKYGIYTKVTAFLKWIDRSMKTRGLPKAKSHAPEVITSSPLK

Protein | % of WT kcat/KM | KM | KM for FX activation by FIXa in the Xase complex (FVIIIa/PC-PS/Ca2+), fluorogenic Spectrafluor FXa assay | kcat | % of WT kcat/KM (against Catalyst Biosciences WT FIXa), FX activation in the Xase complex | KM (nM) for activation of FX by FIXa in the Xase complex (FVIIIa, PC/PS vesicles, Ca2+), fluorogenic Spectrafluor FXa assay | kcat/KM for FX activation by FIXa in the Xase complex (FVIIIa, PC/PS vesicles, Ca2+), indirect fluorogenic Spectrafluor FXa assay | % of WT kcat/KM (against Catalyst Biosciences WT FIXa) | kcat/KM for activation of FX by FIXa in the Xase complex (FVIIIa, PC/PS vesicles, Ca2+), fluorogenic Spectrafluor FXa read-out
B1 | 88% and 85% | 0.0457 µM | 0.0457 µM | 1.6 s⁻¹ | – | – | – | – | –
B2 | – | 0.0565 µM | – | 1.2 s⁻¹ | – | – | – | – | –
B3 | – | 0.0673 µM | – | 5.7 s⁻¹ | – | – | – | – | –
B4 | – | 0.0536 µM | – | 10.5 s⁻¹ | – | – | – | – | –
B5 | – | 0.0611 µM | – | – | 196% | 61.1 nM | 8.8e+07 M⁻¹ s⁻¹ | – | –
B6 | – | 0.0839 µM | – | – | 156% | 83.9 nM | 7e+07 M⁻¹ s⁻¹ | – | –
B7 | – | 0.1 µM | – | – | 139% | 100 nM | 6.2e+07 M⁻¹ s⁻¹ | – | –
B8 | – | 0.0965 µM | – | – | 43% | 96.5 nM | 1.9e+07 M⁻¹ s⁻¹ | – | –
B9 | – | 0.0612 µM | – | – | 22% | 61.2 nM | 9.8e+06 M⁻¹ s⁻¹ | – | –
B10 | – | 0.0685 µM | – | – | 18% | 68.5 nM | 8.2e+06 M⁻¹ s⁻¹ | – | –
B11 | – | 0.0336 µM | – | – | – | – | – | – | –
B12 | – | 0.028 µM | – | – | – | – | – | 324% | 1.5e+08 M⁻¹ s⁻¹
